Measured values: patent US20080227698A1, “OLIGOPEPTIDES FOR TREATMENT OF OSTEOPOROSIS AND OTHER BONE DISEASES AND METHODS THEREOF” (Washington University, priority 2005, published 2008)

Key:
[1] = system: cytosolic β-catenin; experiment: Cytosolic β-catenin level by western blotting in LRP6-transduced HT1080 cells; format: cell-based, human; settings: 0.5 to 5 nM Mesd, 2 hours at 37° C. (data not shown)
Procedure: […] After washing in ice-cold PBS, cells were collected and homogenized in a glass Dounce homogenizer in buffer consisting of 100 mM Tris-HCl pH 7.4, 140 mM NaCl, 2 mM DTT, 2 mM PMSF, and 1X Complete™ protease inhibitors (500 μl/well). The homogenate was centrifuged for 10 minutes at 500 g, and the supernatant was further centrifuged at 100,000 g at 4° C. for 90 minutes. The resulting supernatant was designated the cytosolic fraction. The β-catenin levels were then examined by western blotting using β-catenin-specific antibody from Cell Signaling Technology. The immunoreactive proteins were detected using the ECL system. Films showing immunoreactive bands were scanned with a Kodak Digital Science DC120 Zoom Digital Camera and band intensities were analyzed with Kodak Digital Science 1D Image Analysis Software.
β-catenin is a key molecule in the Wnt/β-catenin signaling pathway. A cytosolic pool of β-catenin interacts with DNA-binding proteins and participates in Wnt signal transduction (Hinck, L., J. Cell Biol. 125, 1327-13401994; Gottardi, C. J., J. Cell Biol. 153: 1049-1060, 2001; Klingelhofer, J., Oncogene 22, 1181-1188, 2003). To determine whether Mesd binding to cell surface LRP6 directly regulates Wnt signaling, the effects of Mesd binding on cytosolic P-catenin levels in HT1080-LRP6 cells were studied. […]

[2] = biological target: LRP6 (Homo sapiens, UniProt O75581); experiment: LRP6-mediated ^125I-Mesd degradation in LRP6-transduced HT1080 cells; format: cell-based; parameters: plasmid pCS-Myc-hLRP6 containing the full-length human LRP6 cDNA; HA; expressed in transfected cells; host or cells: human HT1080 cells, stably transduced (pLNCX2 retroviral vector); settings: ^125I-Mesd 5 nM, 4 hours at 37° C.
Procedure: Ligand degradation was performed using the methods as described (Li, Y., J. Biol. Chem. 275: 17187-17194, 2000). Briefly, 2×10^5 cells were seeded into 12-well dishes 1 day prior to assay. Pre-warmed assay buffer (minimal Eagle's medium containing 0.6% BSA with radioligand, 0.6 ml/well) was added to cell monolayers in the absence or the presence of unlabeled 500 nM RAP or 500 nM Mesd, followed by incubation for 4 hours at 37° C. Thereafter, the medium overlying the cell monolayers was removed and proteins were precipitated by addition of BSA to 10 mg/ml and trichloroacetic acid to 20%. Degradation of radioligand was defined as the appearance of radioactive fragments in the overlying medium that were soluble in 20% trichloroacetic acid. Kinetic analysis of endocytosis LRP6-transduced HT1080 cells were plated in 12-well plates at a density of 2×10^5 cells/well and used after overnight culture. Cells were rinsed twice in ice-cold assay buffer (minimal Eagle's medium containing 0.6% BSA), and ^125I-anti-HA IgG was added at 1 nM final concentration in cold assay buffer (0.5 ml/well). The binding of ^125Ianti- HA IgG was carried out at 4° C. for 90 minutes with gentle rocking. Unbound ^125I-anti-HA IgG was removed by washing cell monolayers three times with cold assay buffer. Ice-cold stop/strip solution (0.2 M acetic acid, pH 2.6, 0.1 M NaCl) was added to one set of plates without warming up and kept on ice. The remaining plates were then placed in a 37° C. water bath and 0.5 ml assay buffer prewarmed to 37° C. was quickly added to cell monolayers to initiate internalization. After each time point, the plates were quickly placed on ice and the assay buffer was replaced with cold stop/strip solution. ^125I-anti-HA IgG that remained on the cell surface was stripped by incubation of cell monolayers with cold stop/strip solution for a total of 20 minutes (0.75 ml for 10 minutes, twice) and counted. Cell monolayers were then solubilized with low-SDS lysis buffer and counted. […] The fraction of internalized ^125I-anti-HA IgG after each time point was calculated and plotted. […]

Sequence of LRP6 (O75581 20-1613): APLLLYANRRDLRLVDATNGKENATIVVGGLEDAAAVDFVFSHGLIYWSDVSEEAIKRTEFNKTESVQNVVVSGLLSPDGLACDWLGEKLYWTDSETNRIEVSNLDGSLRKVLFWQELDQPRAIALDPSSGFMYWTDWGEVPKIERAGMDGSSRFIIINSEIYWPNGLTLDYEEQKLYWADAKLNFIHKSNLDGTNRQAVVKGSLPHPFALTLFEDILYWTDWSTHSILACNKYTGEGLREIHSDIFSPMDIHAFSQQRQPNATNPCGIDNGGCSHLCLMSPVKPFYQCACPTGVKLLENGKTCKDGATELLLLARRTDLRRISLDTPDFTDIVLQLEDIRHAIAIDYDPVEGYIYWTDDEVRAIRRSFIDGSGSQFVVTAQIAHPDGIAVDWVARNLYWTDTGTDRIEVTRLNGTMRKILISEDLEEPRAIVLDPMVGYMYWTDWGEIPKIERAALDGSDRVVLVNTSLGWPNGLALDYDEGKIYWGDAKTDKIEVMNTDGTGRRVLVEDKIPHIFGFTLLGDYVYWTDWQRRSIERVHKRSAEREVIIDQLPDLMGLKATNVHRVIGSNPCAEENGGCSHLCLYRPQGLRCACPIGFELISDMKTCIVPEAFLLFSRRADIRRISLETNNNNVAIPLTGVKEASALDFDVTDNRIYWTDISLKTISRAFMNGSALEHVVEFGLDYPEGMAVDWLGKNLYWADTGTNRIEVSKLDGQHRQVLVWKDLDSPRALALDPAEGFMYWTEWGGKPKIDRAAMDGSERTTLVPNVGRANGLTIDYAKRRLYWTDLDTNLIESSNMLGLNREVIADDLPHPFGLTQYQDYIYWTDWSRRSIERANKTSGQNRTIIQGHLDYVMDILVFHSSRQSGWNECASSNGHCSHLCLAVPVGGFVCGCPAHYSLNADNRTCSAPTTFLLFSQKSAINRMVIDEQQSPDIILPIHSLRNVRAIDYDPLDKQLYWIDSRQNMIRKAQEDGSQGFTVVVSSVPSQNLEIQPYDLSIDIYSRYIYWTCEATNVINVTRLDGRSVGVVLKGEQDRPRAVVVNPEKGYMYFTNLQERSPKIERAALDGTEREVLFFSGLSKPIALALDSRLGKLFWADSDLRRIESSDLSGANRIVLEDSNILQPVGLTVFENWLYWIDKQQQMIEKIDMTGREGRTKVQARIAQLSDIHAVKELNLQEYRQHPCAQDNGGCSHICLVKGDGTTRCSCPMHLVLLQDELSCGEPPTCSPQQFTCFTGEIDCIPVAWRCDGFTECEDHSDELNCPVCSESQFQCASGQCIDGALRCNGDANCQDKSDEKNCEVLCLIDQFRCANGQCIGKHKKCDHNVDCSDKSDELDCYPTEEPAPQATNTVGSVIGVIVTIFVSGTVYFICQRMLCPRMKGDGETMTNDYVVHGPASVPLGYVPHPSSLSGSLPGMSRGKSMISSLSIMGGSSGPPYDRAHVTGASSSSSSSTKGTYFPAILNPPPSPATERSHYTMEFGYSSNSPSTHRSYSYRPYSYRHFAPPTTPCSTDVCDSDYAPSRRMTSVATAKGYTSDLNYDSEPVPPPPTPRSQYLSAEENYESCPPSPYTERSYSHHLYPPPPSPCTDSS

Inhibition of ^125I-Mesd degradation ([2]; 500 nM unlabeled competitor): completely
^125I-Mesd degradation level ([2]; HT1080 cells transduced with LRP6): 320 fmoles/mg cell protein
B1: Mesd: recombinant wild-type mouse Mesd, polyhistidine tail at the N-terminus, lacks the signal peptide, expressed in E. coli (protein)
chain: ADTPGEATPPPRKKKDIRDYNDADMARLLEQWEKDDDIEEGDLPEHKRPSAPIDFSKLDPGKPESILKMTKKGKTLMMFVTVSGNPTEKETEEITSLWQGSLFNANYDVQRFIVGSDRAIFMLRDGSYAWEIKDFLVSQDRCAEVTLEGQMYPGKGGGSKEKNKTKPEKAKKKEGDRKPRASKEDNRAGSRREDL
modifications: left off: small tags and cut ends
notes: recombinant wild-type mouse Mesd, polyhistidine tail at the N-terminus, lacks the signal peptide, expressed in E. coli
Change in cytosolic β-catenin levels [1]: no significant change
